In patent US20260055184A1 (Hoffmann-La Roche, published 2026):

What was measured:
[1] = biological target: T1, CD3 binder CH2527 (VL_7-46(13)/VH_3-23(12)), as analyte MAK<CEA/CD3>rH; assay: SPR (Biacore), 25°C, analyte MAK<CEA/CD3>rH
T1 construct: the rest of the analyte MAK<CEA/CD3>rH (a CEA/CD3 molecule by its name) is not described

[2] = biological target: T1, CD3 binder CH2527 …; assay: SPR (Biacore), 37°C, analyte MAK<CEA/CD3>rH
[3] = biological target: T2, HER1 extracellular domain (human, UniProt P00533 25-645); assay: SPR Biacore T100; HER1 extracellular domain amine-coupled on CM5, antibody injected at 3.125-50 nM, 1:1 Langmuir model
T2 construct: extracellular domain
Description: (§1) HER1 was immobilized on the surface of a CM5 biosensorchip using standard amine-coupling chemistry. The HER1 extracellular domain was injected in sodium acetate, pH 5.0 at 1 μg/ml. Reference control flow cells were treated in the same way but with vehicle buffer only. […] The association phase was 3 minutes and the dissociation time was 10 minutes. […] Kinetic rate constants and equilibrium dissociation constants were calculated by using the 1:1 Langmuir binding model within the Biaevaluation software.

[4] = biological target: T2, HER1 extracellular domain; assay: SPR (Biacore T100), HER1 extracellular domain amine-coupled on a CM5 chip, antibody as analyte, 37 °C, 1:1 Langmuir model
Description: as §1

B1: anti-idiotypic CH2527 binder 4.32.63 (scFv)
scFv: QVQLKESGPGLVAPSQSLSITCTVSGFSLTSYGVSWVRQPPGKCLEWLGIIWGDGSTNYHSALISRLSISKDNSKSQVFLKLNSLQTDDTATYYCAKGITTVVDDYYAMDYWGQGTSVTVSSGGGGSGGGGSGGGGSGGGGSDIQMTQSPASLSASVGETVTITCRASENIDSYLAWYQQKQGKSPQLLVYAATFLADDVPSRFSGSGSGTQYSLKINSLQSEDVARYYCQHYYSTPYTFGCGTKLEIK
notes: From mouse hybridomas (immunisation with CH2527 Fab)
Kd [1]: 1 nM | koff [1]: 0.000105 s⁻¹ | kon [1]: 196000 M⁻¹ s⁻¹ | Kd [2]: 2 nM | koff [2]: 0.000652 s⁻¹ | kon [2]: 346000 M⁻¹ s⁻¹

B2: 4.24.72 (antibody, V domains shown)
VH: QIQLVQSGPELKKPGETVKISCKASGYTVTDYSMNWVKQAPGKCLKWMGWINTETGEPRYTDDFKGRFAFSLETSASTAYLQINNLKNEDSATYFCAREGDYDVFDYWGHGTTLKVSS
VL: DIVLTQSPASLAVSLGQRATISCRASKSVSTSSYSYMHWYQQKPGQPPKLLIKYVSYLESGVPARFSGSGSGTDFTLNIHPVEEEDAATYYCQHSREFPYTFGCGTKLEIK
Kd [1]: 14 nM | koff [1]: 0.00118 s⁻¹ | kon [1]: 87200 M⁻¹ s⁻¹ | Kd [2]: 29 nM | koff [2]: 0.00445 s⁻¹ | kon [2]: 155000 M⁻¹ s⁻¹

B3: HER1-binding IgG1 antibody GA201 (antibody, V domains shown)
VH: QVQLVQSGAEVKKPGSSVKVSCKASGFTFTDYKIHWVRQAPGQGLEWMGYFNPNSGYSTYAQKFQGRVTITADKSTSTAYMELSSLRSEDTAVYYCARLSPGGYYVMDAWGQGTTVTVSS
VL: DIQMTQSPSSLSASVGDRVTITCRASQGINNYLNWYQQKPGKAPKRLIYNTNNLQTGVPSRFSGSGSGTEFTLTISSLQPEDFATYYCLQHNSFPTFGQGTKLEIKR
notes: produced in 293-F cells; also called anti HER1 antibody GA201; GA201 parental unmasked antibody
Kd [3]: 1 nM | koff [4]: 0.00012 s⁻¹ | kon [4]: 168000 M⁻¹ s⁻¹

B4: anti-idiotypic CH2527 binder 4.15.64 (scFv)
scFv: QIQLVQSGPELKKPGETVRISCKASGYTFTDYSIHWVKQAPGKCLKWMGWINTETGEPAYADDFKGRFAFSLETSASTAYLQINNLKNEDTATFFCAHPYDYDVLDYWGQGTSVTVSSGGGGSGGGGSGGGGSGGGGSDTVLTQSPASLGVSLGQRATISCRASKSVSTSNYSYIHWYQQKPGQPPKLLIKYVSYLESGVPARFSGSGSGTDFTLNIHPVEEEDAATYYCQHSREFPWTFGCGTKLEIK
notes: as for B1
Kd [1]: 96 nM | koff [1]: 0.0025 s⁻¹ | kon [1]: 26100 M⁻¹ s⁻¹ | Kd [2]: 94 nM | koff [2]: 0.0135 s⁻¹ | kon [2]: 144000 M⁻¹ s⁻¹
